B1: PLCB2 -1652/-1628 WT NF-kB probe (dsDNA)
DNA 1: CTGTGCTGGGAATTCCCTTAGCTCC
DNA 2: GGAGCTAAGGGAATTCCCAGCACAG
B2: Mutant 1 (NF-kB site deleted) (dsDNA)
DNA 1: CTGTGCTTTAGCTCC
DNA 2: GGAGCTAAAGCACAG
B3: Mutant 2 (… to CCCTTAAGGG) (dsDNA)
DNA 1: CTGTGCTCCCTTAAGGGTTAGCTCC
DNA 2: GGAGCTAACCCTTAAGGGAGCACAG

Key:
[1] = target: T1, NF-kB p65 (RelA), recombinant (Homo sapiens, UniProt Q04206 1-551); assay: EMSA, supershift
[2] = target: T1, NF-kB p65 (RelA), recombinant; assay: competition EMSA

T1 sequence (Q04206 whole entry): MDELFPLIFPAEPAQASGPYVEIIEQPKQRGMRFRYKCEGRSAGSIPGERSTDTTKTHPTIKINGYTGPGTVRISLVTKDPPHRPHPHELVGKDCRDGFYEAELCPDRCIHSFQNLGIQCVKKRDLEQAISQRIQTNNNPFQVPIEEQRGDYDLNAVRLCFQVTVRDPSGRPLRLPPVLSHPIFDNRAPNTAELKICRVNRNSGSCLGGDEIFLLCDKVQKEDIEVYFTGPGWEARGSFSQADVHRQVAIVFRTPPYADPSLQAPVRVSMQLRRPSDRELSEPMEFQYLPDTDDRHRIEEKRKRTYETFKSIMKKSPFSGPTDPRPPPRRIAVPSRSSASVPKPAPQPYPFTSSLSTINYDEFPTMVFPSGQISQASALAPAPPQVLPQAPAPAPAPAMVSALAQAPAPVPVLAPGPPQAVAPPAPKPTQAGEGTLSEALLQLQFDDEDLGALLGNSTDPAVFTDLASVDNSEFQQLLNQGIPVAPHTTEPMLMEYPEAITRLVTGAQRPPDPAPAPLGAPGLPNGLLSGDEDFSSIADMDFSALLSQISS

Row | Binder | binding result [1] | binding result [2]
1 | B1 | binds | –
2 | B2 | – | no binding
3 | B3 | – | no binding

— publication PMC6919569
